This experiment has as its target T1, 12 amino acid peptide (HSET-N) labeled with biotin at the N-terminus (bio-…).
T1 sequence (peptide, biotin at the N-terminus): EDGLEPEKKRTR
Briefly: SPR; BIAcore T200, 25 °C; biotinylated peptide immobilised on a Series S sensor chip SA at 10-40 RU; antibodies injected 3 min at 30 µl/min in HBS-EP (10 mM HEPES pH 7.4, 250 mM NaCl, 3 mM EDTA, 0.05% P-20); at least five concentrations; 1:2 binding model, which reflects the avidity effect; KD = …. (In SPR one partner is held on a chip, and binding of the other changes the refractive index at the surface.)

B1: mouse 6C407 IgG2a/κ (antibody, V domains shown)
VH: EVQLQQSGAELVKPGASVKLSCTASGFNIKDTYIHWVKQRPEQGLEWIGRIDPANGNTKYDPKFQGKATITADTSSNTAYLQLSSLTSEDTAVYYCARGYGSRSAMDYWGQGTSVTVS
VL: DIVLTQSPASLAVSLGQRATISCRASKSVSTSGYSYMLWYQQKPGQPPKLLIYLASNLESGVPARFSGSGSGTDFTLNIHPVEEEDAATYYCQHSRELPWTFGGGTKLEIK
As to B1, the Kd was 2.45 nM; the koff (commonly a measure of how fast the partners let go of each other) turned out to be 0.00138 s⁻¹; the kon (in general, the rate constant with which the complex forms) was found to be 567000 M⁻¹ s⁻¹.

B2: chimeric mouse-chicken MC-6C407 IgY/λ (antibody, V domains shown)
VH: EVQLQQSGAELVKPGASVKLSCTASGFNIKDTYIHWVKQRPEQGLEWIGRIDPANGNTKYDPKFQGKATITADTSSNTAYLQLSSLTSEDTAVYYCARGYGSRSAMDYWGQGTSVTVS
VL: DIVLTQSPASLAVSLGQRATISCRASKSVSTSGYSYMLWYQQKPGQPPKLLIYLASNLESGVPARFSGSGSGTDFTLNIHPVEEEDAATYYCQHSRELPWTFGGGTKLEIK
Consider B2, for which the Kd is 1.24 nM, the koff was determined as 0.000632 s⁻¹ and the kon stood at 511000 M⁻¹ s⁻¹.

These data come from paper PMC6917740.
